# Target: MYC-tagged FTL wild type, P02792
# Test: co-IP; HeLa-FTH1 KO cells; anti-MYC IP of MYC-FTH1/FTL, immunoblot; 50 mM Tris-HCl pH 7.5, 150 mM NaCl, 0.5% Nonidet P40, 1 mM DTT; quantified relative to FTH1-WT, normalized to immunoprecipitated FTH1/FTL and NCOA4 input
# Details: remark: other sources report otherwise
# Sequence of MYC-tagged FTL wild type, P02792 (P02792 whole entry): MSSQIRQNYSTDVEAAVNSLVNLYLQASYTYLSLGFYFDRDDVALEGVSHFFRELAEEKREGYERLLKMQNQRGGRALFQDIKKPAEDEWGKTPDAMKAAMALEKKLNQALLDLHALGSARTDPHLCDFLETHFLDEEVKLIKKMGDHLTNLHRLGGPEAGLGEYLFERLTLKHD
binder,measurement,value
"C-terminally HA-FLAG-tagged NCOA4, Q13772 1-614 (natural protein) MNTFQDQSGSSSNREPLLRCSDARRDLELAIGGVLRAEQQIKDNLREVKAQIHSCISRHLECLRSREVWLYEQVDLIYQLKEETLQQQAQQLYSLLGQFNCLTHQLECTQNKDLANQVSVCLERLGSLTLKPEDSTVLLFEADTITLRQTITTFGSLKTIQIPEHLMAHASSANIGPFLEKRGCISMPEQKSASGIVAVPFSEWLLGSKPASGYQAPYIPSTDPQDWLTQKQTLENSQTSSRACNFFNNVGGNLKGLENWLLKSEKSSYQKCNSHSTTSSFSIEMEKVGDQELPDQDEMDLSDWLVTPQESHKLRKPENGSRETSEKFKLLFQSYNVNDWLVKTDSCTNCQGNQPKGVEIENLGNLKCLNDHLEAKKPLSTPSMVTEDWLVQNHQDPCKVEEVCRANEPCTSFAECVCDENCEKEALYKWLLKKEGKDKNGMPVEPKPEPEKHKDSLNMWLCPRKEVIEQTKAPKAMTPSRIADSFQVIKNSPLSEWLIRPPYKEGSPKEVPGTEDRAGKQKFKSPMNTSWCSFNTADWVLPGKKMGNLSQLSSGEDKWLLRKKAQEVLLNSPLQEEHNFPPDHYGLPAVCDLFACMQLKVDKEKWLYRTPLQM",relative interaction by immunoprecipitation (% of FTH1-WT),14%

# Reference: PMC11076521
